Values of other authors as cited in paper PMC4474783.

Assays:
[1] = target: calreticulin 189-288 (Homo sapiens) (UniProt P27797)
[2] = target: calnexin P-domain (Homo sapiens) (UniProt P27824); test: ITC
calnexin (Homo sapiens) = calnexin (Homo sapiens) (UniProt P27824)
[3] = target: calreticulin (Homo sapiens) (UniProt P27797)

| Substance | Kd [1] | Kd [2] | Kd (calnexin (Homo sapiens)) | Kd [3] |
| --- | --- | --- | --- | --- |
| ERp57 (from UniProt P30101) | 9 µM | 26 µM | – | – |
| CypB (from UniProt P23284) | – | – | 10 µM | 10 µM |
